Non-standard residues stand in square brackets, D forms with d. No end group written: not given here. *: point of attachment. Desaminotyrosyl = O=C(CCc1ccc(O)cc1)*; NMeY = CN[C@@H](Cc1ccc(O)cc1)C(=O)O; Agmatine = N=C(N)NCCCCN*; Nle = CCCC[C@H](N)C(=O)O; Orn = NCCC[C@H](N)C(=O)O; Abu = CC[C@H](N)C(=O)O; Ava = NCCCCC(=O)O
T1: GHRH receptor of human pituitary membranes (human, UniProt Q02643)
T1 sequence: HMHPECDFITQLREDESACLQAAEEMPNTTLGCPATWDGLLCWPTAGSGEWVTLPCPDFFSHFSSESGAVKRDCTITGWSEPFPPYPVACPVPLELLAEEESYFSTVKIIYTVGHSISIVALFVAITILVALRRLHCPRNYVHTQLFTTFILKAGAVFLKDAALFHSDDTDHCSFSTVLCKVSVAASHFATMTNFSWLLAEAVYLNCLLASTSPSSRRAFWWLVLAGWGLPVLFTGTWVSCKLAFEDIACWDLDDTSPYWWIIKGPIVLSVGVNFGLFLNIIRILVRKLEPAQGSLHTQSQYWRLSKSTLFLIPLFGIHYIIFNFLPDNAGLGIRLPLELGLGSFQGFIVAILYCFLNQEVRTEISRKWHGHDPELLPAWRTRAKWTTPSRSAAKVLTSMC


Key:
[1] = biological target: T1, GHRH receptor of human pituitary …; test: competition vs 125I-JV-1-42, human pituitary membranes;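 also: pituitaries used were normal human glands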
Source text: Normal human pituitaries were purchased from the National Hormone and Peptide Program (A.F. Parlow, Los Angeles, County Harbor-UCLA Medical Center, Torrance, Calif.).

[2] = biological target: T1, GHRH receptor of human pituitary …; test: competition vs 125I-[His1,Nle27]hGHRH(1-32)NH2, human pituitary membranes
Source text: Normal human pituitary was purchased from the National Hormone and Peptide Program (UCLA Medical Center, Torrance, Calif.).

IC50 [1] | relative affinity (binding potency) vs JI-38 [1] | IC50 [2] | relative affinity (binding potency) compared to JI-38 [2] | relative affinity (binding potency) compared to hGHRH(1-29) [2] | Binder
3.44 nM | 1.26 vs JI-38=1 | 3.87 nM | 0.71 vs JI-38=1 | 1.98 vs hGHRH(1-29)NH2=1 | Ac-[NMeY][dA]DAIFTQSYR[Orn]VL[Abu]QLSAR[Orn]LLQDI[Nle]D[Agmatine] (SMILES CCCC[C@H](NC(=O)[C@@H](NC(=O)[C@H](CC(=O)O)NC(=O)[C@H](CCC(N)=O)NC(=O)[C@H](CC(C)C)NC(=O)[C@H](CC(C)C)NC(=O)[C@H](CCCN)NC(=O)[C@H](CCCNC(=N)N)NC(=O)[C@H](C)NC(=O)[C@H](CO)NC(=O)[C@H](CC(C)C)NC(=O)[C@H](CCC(N)=O)NC(=O)[C@H](CC)NC(=O)[C@H](CC(C)C)NC(=O)[C@@H](NC(=O)[C@H](CCCN)NC(=O)[C@H](CCCNC(=N)N)NC(=O)[C@H](Cc1ccc(O)cc1)NC(=O)[C@H](CO)NC(=O)[C@H](CCC(N)=O)NC(=O)[C@@H](NC(=O)[C@H](Cc1ccccc1)NC(=O)[C@@H](NC(=O)[C@H](C)NC(=O)[C@H](CC(=O)O)NC(=O)[C@@H](C)NC(=O)[C@H](Cc1ccc(O)cc1)N(C)C(C)=O)[C@@H](C)CC)[C@@H](C)O)C(C)C)[C@@H](C)CC)C(=O)N[C@@H](CC(=O)O)C(=O)NCCCCNC(=N)N)
1.7 nM | 2.56 vs JI-38=1 | 1.09 nM | 2.51 vs JI-38=1 | 7.01 vs hGHRH(1-29)NH2=1 | [NMeY][dA]DAIFTNSYR[Orn]VL[Abu]QLSAR[Orn]LLQDI[Nle]D[Agmatine] [P-20367 [N-Me-Tyr^1, D-Ala^2, Orn^12, Abu^15, Orn^21, Nle^27, Asp^28, Agm^29]hGHRH(1-29)NH2]
2.74 nM | 1.59 vs JI-38=1 | 2.6 nM | 1.05 vs JI-38=1 | 2.94 vs hGHRH(1-29)NH2=1 | [Desaminotyrosyl][dA]DAIFTQSYR[Orn]VL[Abu]QLSAR[Orn]LLQDI[Nle]D[dR]-NHMe (SMILES CCCC[C@H](NC(=O)[C@@H](NC(=O)[C@H](CC(=O)O)NC(=O)[C@H](CCC(N)=O)NC(=O)[C@H](CC(C)C)NC(=O)[C@H](CC(C)C)NC(=O)[C@H](CCCN)NC(=O)[C@H](CCCNC(=N)N)NC(=O)[C@H](C)NC(=O)[C@H](CO)NC(=O)[C@H](CC(C)C)NC(=O)[C@H](CCC(N)=O)NC(=O)[C@H](CC)NC(=O)[C@H](CC(C)C)NC(=O)[C@@H](NC(=O)[C@H](CCCN)NC(=O)[C@H](CCCNC(=N)N)NC(=O)[C@H](Cc1ccc(O)cc1)NC(=O)[C@H](CO)NC(=O)[C@H](CCC(N)=O)NC(=O)[C@@H](NC(=O)[C@H](Cc1ccccc1)NC(=O)[C@@H](NC(=O)[C@H](C)NC(=O)[C@H](CC(=O)O)NC(=O)[C@@H](C)NC(=O)CCc1ccc(O)cc1)[C@@H](C)CC)[C@@H](C)O)C(C)C)[C@@H](C)CC)C(=O)N[C@@H](CC(=O)O)C(=O)N[C@H](CCCNC(=N)N)C(=O)NC) [P-27401 [Dat^1, D-Ala^2, Gln^8, Orn^12, Abu^15, Orn^21, Nle^27, Asp^28, D-Arg^29]hGHRH(1-29)NH-CH3]
0.71 nM | 6.12 vs JI-38=1 | 0.98 nM | 2.8 vs JI-38=1 | 7.81 vs hGHRH(1-29)NH2=1 | [NMeY][dA]DAIFTQSYR[Orn]VL[Abu]QLSAR[Orn]LLQDI[Nle]DR[Ava]-NH2 (N-terminus assumed; SMILES CCCC[C@H](NC(=O)[C@@H](NC(=O)[C@H](CC(=O)O)NC(=O)[C@H](CCC(N)=O)NC(=O)[C@H](CC(C)C)NC(=O)[C@H](CC(C)C)NC(=O)[C@H](CCCN)NC(=O)[C@H](CCCNC(=N)N)NC(=O)[C@H](C)NC(=O)[C@H](CO)NC(=O)[C@H](CC(C)C)NC(=O)[C@H](CCC(N)=O)NC(=O)[C@H](CC)NC(=O)[C@H](CC(C)C)NC(=O)[C@@H](NC(=O)[C@H](CCCN)NC(=O)[C@H](CCCNC(=N)N)NC(=O)[C@H](Cc1ccc(O)cc1)NC(=O)[C@H](CO)NC(=O)[C@H](CCC(N)=O)NC(=O)[C@@H](NC(=O)[C@H](Cc1ccccc1)NC(=O)[C@@H](NC(=O)[C@H](C)NC(=O)[C@H](CC(=O)O)NC(=O)[C@@H](C)NC(=O)[C@H](Cc1ccc(O)cc1)NC)[C@@H](C)CC)[C@@H](C)O)C(C)C)[C@@H](C)CC)C(=O)N[C@@H](CC(=O)O)C(=O)N[C@@H](CCCNC(=N)N)C(=O)NCCCCC(N)=O) [P-22326 [N-Me-Tyr^1, D-Ala^2, Gln^8, Orn^12, Abu^15, Orn^21, Nle^27, Asp^28, Apa^30]hGHRH(1-30)NH2]
1.44 nM | 3.02 vs JI-38=1 | 2.85 nM | 0.96 vs JI-38=1 | 2.68 vs hGHRH(1-29)NH2=1 | YADAIFTNSYRKVLGQLSARKLLQDIMSRQ (Dat^1; D-Abu^2; Orn^12; Abu^15; Orn^21; Nle^27; Gab^30 (in place of Gln^30); C-terminal -NH2) [P-25504 [Dat^1, D-Abu^2, Orn^12, Abu^15, Orn^21, Nle^27, Gab^30]hGHRH(1-30)NH2]
1.99 nM | 2.18 vs JI-38=1 | – | 1.34 vs JI-38=1 | 3.75 vs hGHRH(1-29)NH2=1 | [Desaminotyrosyl]ADAIFTQSYR[Orn]VL[Abu]QLSAR[Orn]LLQDI[Nle]DR[Ava]-NH2 (SMILES CCCC[C@H](NC(=O)[C@@H](NC(=O)[C@H](CC(=O)O)NC(=O)[C@H](CCC(N)=O)NC(=O)[C@H](CC(C)C)NC(=O)[C@H](CC(C)C)NC(=O)[C@H](CCCN)NC(=O)[C@H](CCCNC(=N)N)NC(=O)[C@H](C)NC(=O)[C@H](CO)NC(=O)[C@H](CC(C)C)NC(=O)[C@H](CCC(N)=O)NC(=O)[C@H](CC)NC(=O)[C@H](CC(C)C)NC(=O)[C@@H](NC(=O)[C@H](CCCN)NC(=O)[C@H](CCCNC(=N)N)NC(=O)[C@H](Cc1ccc(O)cc1)NC(=O)[C@H](CO)NC(=O)[C@H](CCC(N)=O)NC(=O)[C@@H](NC(=O)[C@H](Cc1ccccc1)NC(=O)[C@@H](NC(=O)[C@H](C)NC(=O)[C@H](CC(=O)O)NC(=O)[C@H](C)NC(=O)CCc1ccc(O)cc1)[C@@H](C)CC)[C@@H](C)O)C(C)C)[C@@H](C)CC)C(=O)N[C@@H](CC(=O)O)C(=O)N[C@@H](CCCNC(=N)N)C(=O)NCCCCC(N)=O) [P-22327 [Dat^1, Gln^8, Orn^12, Abu^15, Orn^21, Nle^27, Asp^28, Apa^30]hGHRH(1-30)NH2]
0.82 nM | 5.3 vs JI-38=1 | 1.19 nM | 2.3 vs JI-38=1 | 6.42 vs hGHRH(1-29)NH2=1 | [NMeY][dA]DAIFTQSYR[Orn]VL[Abu]QLSAR[Orn]LLQDI[Nle]D[Agmatine] [P-20361 [N-Me-Tyr^1, D-Ala^2, Gln^8, Orn^12, Abu^15, Orn^21, Nle^27, Asp^28, Agm^29]hGHRH(1-29)NH2]
